The record followed here is patent publication US11795460B2, “Compositions and methods for TTR gene editing and treating ATTR amyloidosis” (Intellia Therapeutics, Inc., priority 2017, dated 2023).

Strand notation (5' to 3'): a small letter for the sugar, then the base; units joined by * are phosphorothioate-linked, units joined directly phosphodiester-linked; [ ] holds rarer units or linkages, { } end groups; capitals alone tell only the bases. m = 2'-O-methyl; r = 2'-OH (RNA)

For the series, the system named is TTR. Briefly: TTR editing in primary human hepatocytes transfected with Spy Cas9 mRNA and sgRNAs (Table 13). The settings on record: primary human hepatocytes co-transfected with Spy Cas9 mRNA (SEQ ID NO:2) and sgRNAs, 12.5 nM. Format: cell-based. On the procedure:
Primary liver hepatocytes. Primary human liver hepatocytes (PHH) and primary cynomolgus liver hepatocytes (PCH) (Gibco) were cultured per the manufacturer's protocol (Invitrogen, protocol 11.28.2012). In brief, the cells were thawed and resuspended in hepatocyte thawing medium with supplements (Gibco, Cat. CM7000) followed by centrifugation at 100 g for 10 minutes for human and 80 g for 4 minutes for cyno. The supernatant was discarded and the pelleted cells resuspended in hepatocyte plating medium plus supplement pack (Invitrogen, Cat. A1217601 and CM3000). Cells were counted and plated on Bio-coat collagen I coated 96-well plates (ThermoFisher, Cat. 877272) at a density of 33,000 cells/well for human or 60,000 cells/well for cyno (or 65,000 cells/well when assaying effects on TTR protein, described further below). Plated cells were allowed to settle and adhere for 6 or 24 hours in a tissue culture incubator at 37° C. and 5% CO2 atmosphere. After incubation cells were checked for monolayer formation and media was replaced with hepatocyte culture medium with serum-free supplement pack (Invitrogen, Cat. A1217601 and CM4000).
Lipofectamine RNAiMax (ThermoFisher, Cat. 13778150) based transfections were conducted as per the manufacturer's protocol. Cells were sequentially transfected with a lipoplex containing Spy Cas9 mRNA (100 ng), Lipofectamine RNAiMax (0.4 […]) and tracer RNA ([…]), Lipofectamine RNAiMax (0.4 μL/well) and OptiMem.
Transfected cells were harvested post-transfection at 24, 48, or 72 hours. The genomic DNA was extracted from each well of a 96-well plate using 50 μL/well BuccalAmp DNA Extraction solution (Epicentre, Cat. QE09050) per manufacturer's protocol. All DNA samples were subjected to PCR and subsequent NGS analyses, as described herein.
To quantitatively determine the efficiency of editing at the target location in the genome, sequencing was utilized to identify the presence of insertions and deletions introduced by gene editing.
Primers were designed around the target site within the gene of interest (e.g. TTR), and the genomic area of interest was amplified.
Additional PCR was performed per the manufacturer's protocols (Illumina) to add chemistry for sequencing. The amplicons were sequenced on an Illumina MiSeq instrument. The reads were aligned to a reference genome (e.g., the human reference genome (hg38), the cynomologus reference genome (mf5), the rat reference genome (rn6), or the mouse reference genome (mm10)) after eliminating those having low quality scores. The resulting files containing the reads were mapped to the reference genome (BAM files), where reads that overlapped the target region of interest were selected and the number of wild type reads versus the number of reads which contain an insertion, substitution, or deletion was calculated.
The editing percentage (e.g., the “editing efficiency” or “percent editing” or “indel frequency”) is defined as the total number of sequence reads with insertions/deletions (“indels”) or substitutions over the total number of sequence reads, including wild type.
Guides in modified sgRNA format targeting human and/or cyno TTR were delivered to primary human hepatocytes and primary cyno hepatocytes as described in Example 1. Percent editing was determined for crRNAs comprising each guide sequence across each cell type and the guide sequences were then rank ordered based on highest % edit. The screening data for the guide sequences in Table 2 in both cell lines are listed below (Table 12 through 15).

B1: G000487: TTR sgRNA modified sequence, Human, SEQ ID No. 94; guide sequence of CR003357 (nucleic acid)
guide: mU*mU*mC*rUrUrUrGrGrCrArArCrUrUrArCrCrCrArGrGrUrUrUrUrArGrAmGmCmUmAmGmAmAmAmUmAmGmCrArArGrUrUrArArArArUrArArGrGrCrUrArGrUrCrCrGrUrUrArUrCrAmAmCmUmUmGmAmAmAmAmAmGmUmGmGmCmAmCmCmGmAmGmUmCmGmGmUmGmCmU*mU*mU*mU
As for B1, the “Avg % Deletion” value was found to be 2.27%, the “Avg % Edit” value was 49.57% and the “Avg % Insert” value turned out to be 47.38%.

B2: G000493: TTR sgRNA modified sequence, Human, SEQ ID No. 100; guide sequence of CR003368 (nucleic acid)
guide: mA*mA*mG*rUrGrCrCrUrUrCrCrArGrUrArArGrArUrUrGrUrUrUrUrArGrAmGmCmUmAmGmAmAmAmUmAmGmCrArArGrUrUrArArArArUrArArGrGrCrUrArGrUrCrCrGrUrUrArUrCrAmAmCmUmUmGmAmAmAmAmAmGmUmGmGmCmAmCmCmGmAmGmUmCmGmGmUmGmCmU*mU*mU*mU
For B2, the “Avg % Deletion” value is recorded as 0.97%, the “Avg % Edit” value came to 11.55% and the “Avg % Insert” value is on record as 10.65%.

B3: G000497: TTR sgRNA modified sequence, Human, SEQ ID No. 104; guide sequence of CR003335 (nucleic acid)
guide: mC*mU*mG*rCrUrCrCrUrCrCrUrCrUrGrCrCrUrUrGrCrGrUrUrUrUrArGrAmGmCmUmAmGmAmAmAmUmAmGmCrArArGrUrUrArArArArUrArArGrGrCrUrArGrUrCrCrGrUrUrArUrCrAmAmCmUmUmGmAmAmAmAmAmGmUmGmGmCmAmCmCmGmAmGmUmCmGmGmUmGmCmU*mU*mU*mU
Take B3: the “Avg % Deletion” value is given as 5.85%, the “Avg % Edit” value was determined as 40.33% and the “Avg % Insert” value came out at 34.48%.

B4: G000486: TTR sgRNA modified sequence, Human, SEQ ID No. 93; guide sequence of CR003339 (nucleic acid)
guide: mA*mC*mA*rCrArArArUrArCrCrArGrUrCrCrArGrCrArGrUrUrUrUrArGrAmGmCmUmAmGmAmAmAmUmAmGmCrArArGrUrUrArArArArUrArArGrGrCrUrArGrUrCrCrGrUrUrArUrCrAmAmCmUmUmGmAmAmAmAmAmGmUmGmGmCmAmCmCmGmAmGmUmCmGmGmUmGmCmU*mU*mU*mU
Regarding B4, the “Avg % Deletion” value was 56.37%, the “Avg % Edit” value is on record as 59.13% and the “Avg % Insert” value is recorded as 2.82%.

B5: G000492: TTR sgRNA modified sequence, Human, SEQ ID No. 99; guide sequence of CR003342 (nucleic acid)
guide: mC*mU*mU*rCrUrCrUrArCrArCrCrCrArGrGrGrCrArCrGrUrUrUrUrArGrAmGmCmUmAmGmAmAmAmUmAmGmCrArArGrUrUrArArArArUrArArGrGrCrUrArGrUrCrCrGrUrUrArUrCrAmAmCmUmUmGmAmAmAmAmAmGmUmGmGmCmAmCmCmGmAmGmUmCmGmGmUmGmCmU*mU*mU*mU
Take B5: the “Avg % Deletion” value stood at 2.22%, the “Avg % Edit” value is given as 34.65% and the “Avg % Insert” value is reported as 32.45%.

B6: G000484: TTR sgRNA modified sequence, Human, SEQ ID No. 91; guide sequence of CR003367 (nucleic acid)
guide: mA*mG*mA*rCrArCrCrArArArUrCrUrUrArCrUrGrGrArGrUrUrUrUrArGrAmGmCmUmAmGmAmAmAmUmAmGmCrArArGrUrUrArArArArUrArArGrGrCrUrArGrUrCrCrGrUrUrArUrCrAmAmCmUmUmGmAmAmAmAmAmGmUmGmGmCmAmCmCmGmAmGmUmCmGmGmUmGmCmU*mU*mU*mU
In the case of B6, the “Avg % Deletion” value was determined as 29.48%, the “Avg % Edit” value was 43.37% and the “Avg % Insert” value stood at 13.98%.

B7: G000496: TTR sgRNA modified sequence, Human, SEQ ID No. 103; guide sequence of CR005304 (nucleic acid)
guide: mG*mG*mC*rCrGrUrGrCrArUrGrUrGrUrUrCrArGrArArGrUrUrUrUrArGrAmGmCmUmAmGmAmAmAmUmAmGmCrArArGrUrUrArArArArUrArArGrGrCrUrArGrUrCrCrGrUrUrArUrCrAmAmCmUmUmGmAmAmAmAmAmGmUmGmGmCmAmCmCmGmAmGmUmCmGmGmUmGmCmU*mU*mU*mU
B7: the “Avg % Deletion” value is on record as 52.25%, the “Avg % Edit” value is reported as 63.30% and the “Avg % Insert” value is listed as 11.08%.

B8: G000498: TTR sgRNA modified sequence, Human, SEQ ID No. 105; guide sequence of CR003359 (nucleic acid)
guide: mA*mG*mU*rGrArGrUrCrUrGrGrArGrArGrCrUrGrCrArGrUrUrUrUrArGrAmGmCmUmAmGmAmAmAmUmAmGmCrArArGrUrUrArArArArUrArArGrGrCrUrArGrUrCrCrGrUrUrArUrCrAmAmCmUmUmGmAmAmAmAmAmGmUmGmGmCmAmCmCmGmAmGmUmCmGmGmUmGmCmU*mU*mU*mU
Take B8: the “Avg % Deletion” value is on record as 14.90%, the “Avg % Edit” value amounted to 60.02% and the “Avg % Insert” value worked out at 45.20%.

B9: G000485: TTR sgRNA modified sequence, Human, SEQ ID No. 92; guide sequence of CR003336 (nucleic acid)
guide: mC*mC*mU*rCrCrUrCrUrGrCrCrUrUrGrCrUrGrGrArCrGrUrUrUrUrArGrAmGmCmUmAmGmAmAmAmUmAmGmCrArArGrUrUrArArArArUrArArGrGrCrUrArGrUrCrCrGrUrUrArUrCrAmAmCmUmUmGmAmAmAmAmAmGmUmGmGmCmAmCmCmGmAmGmUmCmGmGmUmGmCmU*mU*mU*mU
On to B9, for which the “Avg % Deletion” value is reported as 1.97%, the “Avg % Edit” value was found to be 30.82% and the “Avg % Insert” value is reported as 28.87%.

B10: G000495: TTR sgRNA modified sequence, Human, SEQ ID No. 102; guide sequence of CR003343 (nucleic acid)
guide: mC*mA*mG*rArGrGrArCrArCrUrUrGrGrArUrUrCrArCrGrUrUrUrUrArGrAmGmCmUmAmGmAmAmAmUmAmGmCrArArGrUrUrArArArArUrArArGrGrCrUrArGrUrCrCrGrUrUrArUrCrAmAmCmUmUmGmAmAmAmAmAmGmUmGmGmCmAmCmCmGmAmGmUmCmGmGmUmGmCmU*mU*mU*mU
Take B10: the “Avg % Deletion” value came to 4.45%, the “Avg % Edit” value was 47.77% and the “Avg % Insert” value is 43.40%.

B11: G000483: TTR sgRNA modified sequence, Human, SEQ ID No. 90; guide sequence of CR005298 (nucleic acid)
guide: mU*mC*mC*rArCrUrCrArUrUrCrUrUrGrGrCrArGrGrArGrUrUrUrUrArGrAmGmCmUmAmGmAmAmAmUmAmGmCrArArGrUrUrArArArArUrArArGrGrCrUrArGrUrCrCrGrUrUrArUrCrAmAmCmUmUmGmAmAmAmAmAmGmUmGmGmCmAmCmCmGmAmGmUmCmGmGmUmGmCmU*mU*mU*mU
On to B11, for which the “Avg % Deletion” value is 23.85%, the “Avg % Edit” value worked out at 27.82% and the “Avg % Insert” value is 4.05%.

B12: G000490: TTR sgRNA modified sequence, Human, SEQ ID No. 97; guide sequence of CR003366 (nucleic acid)
guide: mA*mA*mA*rUrArGrArCrArCrCrArArArUrCrUrUrArCrGrUrUrUrUrArGrAmGmCmUmAmGmAmAmAmUmAmGmCrArArGrUrUrArArArArUrArArGrGrCrUrArGrUrCrCrGrUrUrArUrCrAmAmCmUmUmGmAmAmAmAmAmGmUmGmGmCmAmCmCmGmAmGmUmCmGmGmUmGmCmU*mU*mU*mU
B12: the “Avg % Deletion” value is 5.38%, the “Avg % Edit” value was 24.72% and the “Avg % Insert” value stood at 19.38%.

B13: G000491: TTR sgRNA modified sequence, Human, SEQ ID No. 98; guide sequence of CR003338 (nucleic acid)
guide: mA*mU*mA*rCrCrArGrUrCrCrArGrCrArArGrGrCrArGrGrUrUrUrUrArGrAmGmCmUmAmGmAmAmAmUmAmGmCrArArGrUrUrArArArArUrArArGrGrCrUrArGrUrCrCrGrUrUrArUrCrAmAmCmUmUmGmAmAmAmAmAmGmUmGmGmCmAmCmCmGmAmGmUmCmGmGmUmGmCmU*mU*mU*mU
Consider B13, for which the “Avg % Deletion” value is 3.60%, the “Avg % Edit” value came to 45.93% and the “Avg % Insert” value turned out to be 42.42%.
